The target in this assay is biotinylated bovine serum albumin (bovine) (UniProt P02769). The experiment in a line: broad-band Mach-Zehnder interferometry (label-free, TE and TM phase shifts); multiplexed chip: mouse IgG (WGs 1, 4, 7, 10), biotinylated-BSA (WGs 2, 5, 8) and BSA blanks spotted on the sensing arms, blocked with BSA; 1 nM streptavidin in assay buffer (50 mM phosphate, pH 7.4, 10 g/L BSA) for 20 min, then 10 nM anti-mouse IgG antibody for 20 min; 20 ul/min.

Data on one substance can be found in paper PMC4816226.

UniProt P02769, sequence (P02769 25-607): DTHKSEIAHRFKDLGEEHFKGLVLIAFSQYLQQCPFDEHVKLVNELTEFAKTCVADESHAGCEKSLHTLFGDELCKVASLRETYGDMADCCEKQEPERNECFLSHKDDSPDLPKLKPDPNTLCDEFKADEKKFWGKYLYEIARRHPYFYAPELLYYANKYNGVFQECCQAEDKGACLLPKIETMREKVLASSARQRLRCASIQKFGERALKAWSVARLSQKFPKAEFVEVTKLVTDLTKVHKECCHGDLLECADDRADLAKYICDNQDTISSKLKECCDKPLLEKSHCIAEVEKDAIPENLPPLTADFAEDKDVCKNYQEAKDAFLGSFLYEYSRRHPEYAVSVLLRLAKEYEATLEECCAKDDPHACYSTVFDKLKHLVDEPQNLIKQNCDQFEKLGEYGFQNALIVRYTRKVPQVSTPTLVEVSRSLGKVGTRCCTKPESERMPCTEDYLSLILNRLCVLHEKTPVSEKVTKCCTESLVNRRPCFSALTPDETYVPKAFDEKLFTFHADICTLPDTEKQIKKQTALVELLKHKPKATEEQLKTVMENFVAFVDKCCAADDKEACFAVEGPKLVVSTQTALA

As to “Immunopure Streptavidin (from UniProt P22629 25-183) (natural protein)”, the TE phase shift after 20 min with 1 nM streptavidin (interferometer 2) amounted to 4.48 radians, the TE phase shift after 20 min with 1 nM streptavidin (interferometer 5) was 4.56 radians, the TE phase shift after 20 min with 1 nM streptavidin (interferometer 8) was 4.25 radians and the TM phase shift after 20 min with 1 nM streptavidin (interferometer 2) worked out at 6.02 radians. The TM phase shift after 20 min with 1 nM streptavidin (interferometer 5) is 6.87 radians and the TM phase shift after 20 min with 1 nM streptavidin (interferometer 8) came to 5.73 radians.
